Assays:
[1] = molecular target: T1, human NT5E-Biotin (NT5E, GenbankID: NP_002517.1, position: 1-552) (human, UniProt P21589 27-552, biotin (site not stated)); experiment: ELISA on SA-captured NT5E-Biotin; antibody 0.333 ug/mL diluted 1:3; replicate 2
T1 construct: range 1-552; Biotinylated antigen captured on streptavidin-coated plates; also called HNT5E-Biotin; human NTSE-Biotin
T1 sequence (looked up): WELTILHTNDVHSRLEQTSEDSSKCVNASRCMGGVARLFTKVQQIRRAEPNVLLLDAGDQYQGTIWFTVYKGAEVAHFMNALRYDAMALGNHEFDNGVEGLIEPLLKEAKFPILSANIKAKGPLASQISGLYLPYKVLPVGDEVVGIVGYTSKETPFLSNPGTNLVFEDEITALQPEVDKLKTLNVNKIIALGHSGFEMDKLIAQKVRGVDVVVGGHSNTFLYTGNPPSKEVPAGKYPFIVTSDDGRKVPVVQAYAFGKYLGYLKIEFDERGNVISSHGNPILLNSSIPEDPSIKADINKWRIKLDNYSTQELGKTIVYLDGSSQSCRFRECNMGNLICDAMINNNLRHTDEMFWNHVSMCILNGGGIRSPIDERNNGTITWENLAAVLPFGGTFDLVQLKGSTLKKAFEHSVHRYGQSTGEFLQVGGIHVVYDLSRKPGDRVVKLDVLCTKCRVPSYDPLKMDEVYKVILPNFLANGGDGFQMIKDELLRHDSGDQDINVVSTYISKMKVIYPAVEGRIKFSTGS
Description: (§1) Experimental steps: a microplate was coated with streptavidin at 2 μg/mL, and then the microplate was incubated at 4° C. for 12 hours. The antigen-coated microplate was rinsed for once with PBST after incubation, and then blocked with a PBST solution containing 1% BSA as a microplate blocking solution for 2 hours. After blocking, the microplate was washed 3 times with PBST. […] The antibody serially diluted with the PBST solution was added to the wells of the microplate. The microplate containing the test antibodies was incubated at 37° C. for 30 minutes, and then washed 3 times with PBST. After the plate was washed, the secondary antibody working solution of HRP-labeled goat anti-human IgG (H+L) (Jackson, Cat. No. 109-035-088) diluted in a ratio of 1:5000 or HRP-labeled goat anti-mouse IgG (H+L) (Jackson, Cat. No. 115-035-062) diluted in a ratio of 1:5000 was added, and then the plate was incubated at 37° C. for 30 minutes. After incubation, the plate was washed 4 times with PBST, TMB (Neogen, 308177) was added in the dark for color development for 5 min, and then a stop solution was added to terminate chromogenic reaction. The microplate was put into a microplate reader immediately, and the OD value of each well in the microplate was read at the light wavelength of 450 nm. The data were analyzed by SoftMax Pro 6.2.1.

[2] = molecular target: T1, human NT5E-Biotin (NT5E, GenbankID: …); experiment: ELISA on SA-captured NT5E-Biotin; antibody 0.333 ug/mL diluted 1:729; replicate 2
Description: as §1

[3] = molecular target: T1, human NT5E-Biotin (NT5E, GenbankID: …); experiment: ELISA on SA-captured NT5E-Biotin; antibody 0.333 ug/mL; replicate 1
Description: as §1

[4] = molecular target: T1, human NT5E-Biotin (NT5E, GenbankID: …); experiment: ELISA on SA-captured NT5E-Biotin; antibody 0 (blank); replicate 1
Description: as §1

[5] = molecular target: T1, human NT5E-Biotin (NT5E, GenbankID: …); experiment: ELISA on SA-captured NT5E-Biotin; antibody 0.333 ug/mL diluted 1:9; replicate 1
Description: as §1

[6] = molecular target: T1, human NT5E-Biotin (NT5E, GenbankID: …); experiment: ELISA on SA-captured NT5E-Biotin; antibody 0.333 ug/mL diluted 1:81; replicate 1
Description: as §1

[7] = molecular target: T1, human NT5E-Biotin (NT5E, GenbankID: …); experiment: ELISA on SA-captured NT5E-Biotin; antibody 0.333 ug/mL diluted 1:729; replicate 1
Description: as §1

[8] = molecular target: T1, human NT5E-Biotin (NT5E, GenbankID: …); experiment: ELISA on SA-captured NT5E-Biotin; antibody 0.333 ug/mL diluted 1:243; replicate 1
Description: as §1

[9] = molecular target: T1, human NT5E-Biotin (NT5E, GenbankID: …); experiment: ELISA on SA-captured NT5E-Biotin; antibody 0.333 ug/mL diluted 1:243; replicate 2
Description: as §1

[10] = molecular target: T1, human NT5E-Biotin (NT5E, GenbankID: …); experiment: ELISA on SA-captured NT5E-Biotin; antibody 0.333 ug/mL diluted 1:81; replicate 2
Description: as §1

[11] = molecular target: T1, human NT5E-Biotin (NT5E, GenbankID: …); experiment: ELISA on SA-captured NT5E-Biotin; antibody 0 (blank); replicate 2
Description: as §1

[12] = molecular target: T1, human NT5E-Biotin (NT5E, GenbankID: …); experiment: ELISA on SA-captured NT5E-Biotin; antibody 0.333 ug/mL diluted 1:27; replicate 2
Description: as §1

[13] = molecular target: T1, human NT5E-Biotin (NT5E, GenbankID: …); experiment: ELISA on SA-captured NT5E-Biotin; antibody 0.333 ug/mL; replicate 2
Description: as §1

[14] = molecular target: T1, human NT5E-Biotin (NT5E, GenbankID: …); experiment: ELISA on SA-captured NT5E-Biotin; antibody 0.333 ug/mL diluted 1:3; replicate 1
Description: as §1

- OD 450 nm [1]: 2.76 OD450
- OD 450 nm [2]: 0.47 OD450
- OD 450 nm [3]: 2.71 OD450
- OD 450 nm [4]: 0.06 OD450
- OD 450 nm [5]: 2.57 OD450
- OD 450 nm [6]: 1.69 OD450
- OD 450 nm [7]: 0.446 OD450
- OD 450 nm [8]: 1 OD450
- OD 450 nm [9]: 1 OD450
- OD 450 nm [10]: 1.77 OD450
- OD 450 nm [11]: 0.062 OD450
- OD 450 nm [12]: 2.36 OD450
- OD 450 nm [13]: 2.74 OD450
- OD 450 nm [14]: 2.74 OD450
B1: murine anti-CD73 monoclonal antibody 19F3 (antibody, V domains shown)
VH: EVQLQQSGPELVKPGASMRMSCKASGYSFTGYTMNWVKQSHGKNLEWIGLINPYNAGTSYNQKFKGKATLTVDKSSSTAYMELLSLTSEDSAVYYCARSEYRYGGDYFDYWGQGTTLTVSS
VL: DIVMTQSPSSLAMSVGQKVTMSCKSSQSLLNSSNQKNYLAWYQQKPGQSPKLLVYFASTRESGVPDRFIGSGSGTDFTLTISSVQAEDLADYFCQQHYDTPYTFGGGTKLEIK
notes: Mouse hybridoma antibody purified on protein A; also called murine antibody 19F3; antibody secreted by hybridoma cell line LT014 (CD73-19F3)

From patent US20230159655A1 (AKESO BIOPHARMA, published 2023)
